The text below walks through data of the supplement of paper PMC7125110.

± gives the standard error. For some assays here: Fewer inactive variants are shown than the library holds.

First the molecules themselves.
B1: glmS ribozyme (parent)
chain: AUAAAAGCGCCAGAACUACAGAAAUGUAGUUGACGAGGAGGAGGUUUAUCGAAUUUUCGGCGGAUGCCUCCAAA

Common to all, as to details: with glucosamine-6-phosphate
Variants of B1 are the subject of data set [1]. As to the kind of experiment: kcat; higher = faster cleavage; RNA array. In a few lines: (§1)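 kcat and KM were obtained from weighted Michaelis–Menten fits across concentrations of kobs values. Those came from one- or two-exponential decay fits to per-tile medians normalised to baseline and to non-cleaving reference variants. The variants were barcoded ribozymes transcribed in situ by E. coli RNA polymerase on sequenced MiSeq chips and tracked through a hybridised Cy3 probe at 37 °C, with 40 μM to 10 mM glucosamine-6-phosphate in HEPES/KCl/Mg(OAc)2 buffer flowed in.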

Variants of B1 are the subject of data set [2]. As to the kind of experiment: self-cleavage kobs at 40 uM GlcN6P; higher = faster cleavage; RNA array. A digest of the protocol: as §1
The variants in data set [3] derive from B1. As to the kind of experiment: self-cleavage kobs at 160 uM GlcN6P; higher = faster cleavage; RNA array. In a few lines: as §1
In data set [4] the parent is B1. As to the kind of experiment: self-cleavage kobs at 640 uM GlcN6P; higher = faster cleavage; RNA array. A digest of the protocol: as §1
The variants in data set [5] derive from B1. Kind of data set: self-cleavage kobs at 2500 uM GlcN6P; higher = faster cleavage; RNA array. A digest of the protocol: as §1
Variants of B1 are the subject of data set [6]. As to the kind of experiment: self-cleavage kobs at 10000 uM GlcN6P; higher = faster cleavage; RNA array. A digest of the protocol: as §1
Data set [7] covers variants of B1. Kind of data set: KM; higher = weaker cofactor use; RNA array. A digest of the protocol: as §1

As to C50U A52G, in the data set with glucosamine-6-phosphate [1], the turnover number (kcat) was 1.11e-05 ± 2.8e-06 s⁻¹.

Turning to A12C C16U, the kcat with glucosamine-6-phosphate [1] was 0.0121 ± 0.005 s⁻¹. Further, in the data set with glucosamine-6-phosphate [2], the “self-cleavage kobs at 40 uM GlcN6P” value amounted to 0.000543 ± 4.7e-05 s⁻¹. For the same variant, the “self-cleavage kobs at 160 uM GlcN6P” value with glucosamine-6-phosphate [3] is 0.001 ± 0.00018 s⁻¹. Besides, the “self-cleavage kobs at 640 uM GlcN6P” value with glucosamine-6-phosphate [4] worked out at 0.00435 ± 0.00065 s⁻¹. Besides, the “self-cleavage kobs at 2500 uM GlcN6P” value with glucosamine-6-phosphate [5] came to 0.0065 ± 0.0011 s⁻¹. In addition, the “self-cleavage kobs at 10000 uM GlcN6P” value with glucosamine-6-phosphate [6] was determined as 0.016 ± 0.0022 s⁻¹.

G37A U47C: the kcat with glucosamine-6-phosphate [1] stood at 0.000634 ± 0.00022 s⁻¹. The “self-cleavage kobs at 160 uM GlcN6P” value with glucosamine-6-phosphate [3] is 8.31e-05 ± 2.2e-05 s⁻¹. For the same variant, the “self-cleavage kobs at 640 uM GlcN6P” value with glucosamine-6-phosphate [4] was determined as 0.000181 ± 3.8e-05 s⁻¹. Further, in the data set with glucosamine-6-phosphate [5], the “self-cleavage kobs at 2500 uM GlcN6P” value is 0.000398 ± 7.7e-05 s⁻¹. The “self-cleavage kobs at 10000 uM GlcN6P” value with glucosamine-6-phosphate [6] is 0.00103 ± 0.00045 s⁻¹.

Take G32C U55C: the kcat with glucosamine-6-phosphate [1] worked out at 0.000106 ± 1.3e-05 s⁻¹. Further, the Michaelis-Menten constant (KM) in the data set with glucosamine-6-phosphate [7] is 7360 ± 1900 µM. For the same variant, the “self-cleavage kobs at 160 uM GlcN6P” value in the data set with glucosamine-6-phosphate [3] was less than 1e-05 s⁻¹. In addition, the “self-cleavage kobs at 2500 uM GlcN6P” value in the data set with glucosamine-6-phosphate [5] is 2.78e-05 ± 1.4e-05 s⁻¹. Also, the “self-cleavage kobs at 10000 uM GlcN6P” value with glucosamine-6-phosphate [6] came to 6.12e-05 ± 1.1e-05 s⁻¹.

As for C16G U49G, the kcat with glucosamine-6-phosphate [1] amounted to 6.89e-05 ± 1.1e-05 s⁻¹. Moreover, the “self-cleavage kobs at 2500 uM GlcN6P” value in the data set with glucosamine-6-phosphate [5] was 5.02e-05 ± 1.3e-05 s⁻¹. Further, in the data set with glucosamine-6-phosphate [6], the “self-cleavage kobs at 10000 uM GlcN6P” value worked out at 5.76e-05 ± 1.1e-05 s⁻¹.

For the variant U47A U56C, the kcat with glucosamine-6-phosphate [1] is 0.00368 ± 0.00095 s⁻¹. Also, the KM in the data set with glucosamine-6-phosphate [7] came to 3940 ± 1500 µM. For the same variant, the “self-cleavage kobs at 160 uM GlcN6P” value with glucosamine-6-phosphate [3] turned out to be 0.000111 ± 2.1e-05 s⁻¹. Also, the “self-cleavage kobs at 640 uM GlcN6P” value with glucosamine-6-phosphate [4] was 0.000703 ± 8.8e-05 s⁻¹. In addition, in the data set with glucosamine-6-phosphate [5], the “self-cleavage kobs at 2500 uM GlcN6P” value worked out at 0.00144 ± 0.00021 s⁻¹. Also, the “self-cleavage kobs at 10000 uM GlcN6P” value with glucosamine-6-phosphate [6] is 0.00257 ± 0.00031 s⁻¹.

Take U30C: the kcat with glucosamine-6-phosphate [1] is 0.000469 ± 2.4e-05 s⁻¹. Further, the Michaelis constant (KM) in the data set with glucosamine-6-phosphate [7] was found to be 1950 ± 180 µM. In the data set with glucosamine-6-phosphate [3], the “self-cleavage kobs at 160 uM GlcN6P” value was 4.18e-05 ± 1.9e-06 s⁻¹. The “self-cleavage kobs at 640 uM GlcN6P” value in the data set with glucosamine-6-phosphate [4] is 0.000113 ± 2e-06 s⁻¹. In addition, the “self-cleavage kobs at 2500 uM GlcN6P” value with glucosamine-6-phosphate [5] was 0.000759 ± 0.00027 s⁻¹. The “self-cleavage kobs at 10000 uM GlcN6P” value in the data set with glucosamine-6-phosphate [6] was 0.000395 ± 6.5e-06 s⁻¹.

On to G13U U47G, for which the kcat with glucosamine-6-phosphate [1] came out at 0.000262 ± 5.2e-05 s⁻¹. In addition, in the data set with glucosamine-6-phosphate [7], the KM came to 2420 ± 890 µM. Moreover, in the data set with glucosamine-6-phosphate [4], the “self-cleavage kobs at 640 uM GlcN6P” value was found to be 4.72e-05 ± 7.2e-06 s⁻¹. In addition, the “self-cleavage kobs at 2500 uM GlcN6P” value with glucosamine-6-phosphate [5] was 0.000158 ± 1.5e-05 s⁻¹. In addition, the “self-cleavage kobs at 10000 uM GlcN6P” value in the data set with glucosamine-6-phosphate [6] was 0.00019 ± 2.5e-05 s⁻¹.

As to A53U C70G, the kcat with glucosamine-6-phosphate [1] turned out to be 0.000152 ± 2.3e-05 s⁻¹. Also, the KM in the data set with glucosamine-6-phosphate [7] turned out to be 168 ± 74 µM. The “self-cleavage kobs at 40 uM GlcN6P” value with glucosamine-6-phosphate [2] was determined as 8.15e-05 ± 2.5e-05 s⁻¹. For the same variant, in the data set with glucosamine-6-phosphate [3], the “self-cleavage kobs at 160 uM GlcN6P” value amounted to 6.88e-05 ± 7.7e-06 s⁻¹. In addition, the “self-cleavage kobs at 640 uM GlcN6P” value in the data set with glucosamine-6-phosphate [4] was determined as 0.000133 ± 1.5e-05 s⁻¹. Also, in the data set with glucosamine-6-phosphate [5], the “self-cleavage kobs at 2500 uM GlcN6P” value is 0.000136 ± 2.3e-05 s⁻¹. Further, the “self-cleavage kobs at 10000 uM GlcN6P” value with glucosamine-6-phosphate [6] is 0.000142 ± 2.6e-05 s⁻¹.

A12G U47C: in the data set with glucosamine-6-phosphate [1], the kcat was 0.000813 ± 9.1e-05 s⁻¹. The Michaelis-Menten constant (KM) in the data set with glucosamine-6-phosphate [7] came to 3820 ± 720 µM. For the same variant, the “self-cleavage kobs at 160 uM GlcN6P” value with glucosamine-6-phosphate [3] turned out to be 3.52e-05 ± 1.3e-05 s⁻¹. Also, in the data set with glucosamine-6-phosphate [4], the “self-cleavage kobs at 640 uM GlcN6P” value came out at 0.000111 ± 1.5e-05 s⁻¹. Moreover, in the data set with glucosamine-6-phosphate [5], the “self-cleavage kobs at 2500 uM GlcN6P” value stood at 0.000412 ± 8.3e-05 s⁻¹. The “self-cleavage kobs at 10000 uM GlcN6P” value with glucosamine-6-phosphate [6] amounted to 0.000577 ± 6.1e-05 s⁻¹.

As for G13U A14G C61A, in the data set with glucosamine-6-phosphate [1], the kcat turned out to be 1.4e-05 ± 5.4e-06 s⁻¹. Besides, the “self-cleavage kobs at 40 uM GlcN6P” value with glucosamine-6-phosphate [2] is less than 1e-05 s⁻¹.

Turning to C61A U65A, the turnover number (kcat) with glucosamine-6-phosphate [1] was less than 1e-05 s⁻¹. The “self-cleavage kobs at 2500 uM GlcN6P” value in the data set with glucosamine-6-phosphate [5] was less than 1e-05 s⁻¹.

As to U30G C70G, the catalytic constant (kcat) with glucosamine-6-phosphate [1] turned out to be 0.000136 ± 7.2e-06 s⁻¹. For the same variant, the KM with glucosamine-6-phosphate [7] was 439 ± 110 µM. For the same variant, the “self-cleavage kobs at 640 uM GlcN6P” value with glucosamine-6-phosphate [4] turned out to be 9.18e-05 ± 2.2e-05 s⁻¹. In addition, the “self-cleavage kobs at 2500 uM GlcN6P” value with glucosamine-6-phosphate [5] was 0.000124 ± 2.3e-05 s⁻¹. Moreover, the “self-cleavage kobs at 10000 uM GlcN6P” value in the data set with glucosamine-6-phosphate [6] worked out at 0.000127 ± 1.4e-05 s⁻¹.

Consider G44A U46G, for which the kcat with glucosamine-6-phosphate [1] stood at 0.000265 ± 5.2e-05 s⁻¹. In addition, in the data set with glucosamine-6-phosphate [4], the “self-cleavage kobs at 640 uM GlcN6P” value worked out at 0.000114 ± 2.6e-05 s⁻¹. For the same variant, the “self-cleavage kobs at 2500 uM GlcN6P” value with glucosamine-6-phosphate [5] was determined as 0.000213 ± 4.4e-05 s⁻¹. In addition, in the data set with glucosamine-6-phosphate [6], the “self-cleavage kobs at 10000 uM GlcN6P” value worked out at 0.000221 ± 4.7e-05 s⁻¹.

On to A14C U47A, for which the kcat in the data set with glucosamine-6-phosphate [1] is 0.00403 ± 0.00081 s⁻¹. In the data set with glucosamine-6-phosphate [7], the KM amounted to 2760 ± 760 µM. Also, in the data set with glucosamine-6-phosphate [2], the “self-cleavage kobs at 40 uM GlcN6P” value was 7.39e-05 ± 9.6e-06 s⁻¹. Moreover, the “self-cleavage kobs at 160 uM GlcN6P” value with glucosamine-6-phosphate [3] turned out to be 0.000213 ± 3.2e-05 s⁻¹. Besides, in the data set with glucosamine-6-phosphate [4], the “self-cleavage kobs at 640 uM GlcN6P” value worked out at 0.000676 ± 8.4e-05 s⁻¹. In the data set with glucosamine-6-phosphate [5], the “self-cleavage kobs at 2500 uM GlcN6P” value was 0.00184 ± 0.0002 s⁻¹. Also, in the data set with glucosamine-6-phosphate [6], the “self-cleavage kobs at 10000 uM GlcN6P” value stood at 0.00348 ± 0.00048 s⁻¹.

In the case of U31C A64U, in the data set with glucosamine-6-phosphate [1], the catalytic constant (kcat) was less than 1e-05 s⁻¹.
